Data from patent US20230062800A1 (DENALI THERAPEUTICS, published 2023).

Biological target: T1, human apical domain TfR (human, UniProt P02786 198-378)
T1 construct: The SPR analyte is printed only as "human apical domain TfR"; also called human TfR; human transferrin receptor 1 apical domain
Test: Biacore SPR as in Example 2; steady-state fit
Description: To determine whether SGSH-Fc fusion proteins with engineered TfR binding affects the ability of the modified Fc domain to interact with human TfR, the affinity of ETV: SGSH Bizyme Structure 1 (Example 1) for human TfR was assessed using a Biacore™ surface plasmon resonance assay. Biacore™ Series S CM5 sensor chips were immobilized with anti-human Fab (human Fab capture kit from GE Healthcare). 5 μg/mL of the SGSH-Fc fusion proteins were captured for 1 minute on each flow cell and serial 3-fold dilutions of human apical domain TfR were injected at a flow rate of 30 μL/min. Each sample was analyzed with a 3-minute association and a 3-minute dissociation. After each injection, the chip was regenerated using 10 mM glycine-HCl (pH 2.1). Binding response was corrected by subtracting the RU from a flow cell capturing an irrelevant IgG at similar density. Steady-state affinities were obtained by fitting the response at equilibrium against the concentration using Biacore™ T200 Evaluation Software v3.1. Biacore™ analysis established that SGSH-Fc fusion proteins with a TfR-binding site engineered into the Fc region bind to human TfR.

T1 sequence (P02786 198-378 limits assumed): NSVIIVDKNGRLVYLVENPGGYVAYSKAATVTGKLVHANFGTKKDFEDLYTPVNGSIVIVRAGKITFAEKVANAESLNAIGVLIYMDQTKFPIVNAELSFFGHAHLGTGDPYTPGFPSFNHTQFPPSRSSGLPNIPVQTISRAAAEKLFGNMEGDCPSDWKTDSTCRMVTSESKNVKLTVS

B1: ETV:SGSH Bizyme Structure 4 (Fc fusion)
chain 1: RPRNALLLLADDGGFESGAYNNSAIATPHLDALARRSLLFRNAFTSVSSCSPSRASLLTGLPQHQNGMYGLHQDVHHFNSFDKVRSLPLLLSQAGVRTGIIGKKHVGPETVYPFDFAYTEENGSVLQVGRNITRIKLLVRKFLQTQDDRPFFLYVAFHDPHRCGHSQPQYGTFCEKFGNGESGMGRIPDWTPQAYDPLDVLVPYFVPNTPAARADLAAQYTTVGRMDQGVGLVLQELRDAGVLNDTLVIFTSDNGIPFPSGRTNLYWPGTAEPLLVSSPEHPKRWGQVSEAYVSLLDLTPTILDWFSIPYPSYAIFGSKTIHLTGRSLLPALEAEPLWATVFGSQSHHEVTMSYPMRSVQHRHFRLVHNLNFKMPFPIDQDFYVSPTFQDLLNRTTAGQPTGWYKDLRHYYYRARWELYDRSRDPHETQNLATDPRFAQLLEMLRDQLAKWQWETHDPWVCAPDGVLEEKLSPQCQPLHNELGGGGSDKTHTCPPCPAPEAAGGPSVFLFPPKPKDTLMISRTPEVTCVVVDVSHEDPEVKFNWYVDGVEVHNAKTKPREEQYNSTYRVVSVLTVLHQDWLNGKEYKCKVSNKALSAPIEKTISKAKGQPREPQVYTLPPSRDELTKNQVSLSCAVKGFYPSDIAVEWESNGQPENNYKTTPPVLDSDGSFFLVSKLTVDKSRWQQGNVFSCSVMHEALHNHYTQKSLSLSPGK
chain 2: RPRNALLLLADDGGFESGAYNNSAIATPHLDALARRSLLFRNAFTSVSSCSPSRASLLTGLPQHQNGMYGLHQDVHHFNSFDKVRSLPLLLSQAGVRTGIIGKKHVGPETVYPFDFAYTEENGSVLQVGRNITRIKLLVRKFLQTQDDRPFFLYVAFHDPHRCGHSQPQYGTFCEKFGNGESGMGRIPDWTPQAYDPLDVLVPYFVPNTPAARADLAAQYTTVGRMDQGVGLVLQELRDAGVLNDTLVIFTSDNGIPFPSGRTNLYWPGTAEPLLVSSPEHPKRWGQVSEAYVSLLDLTPTILDWFSIPYPSYAIFGSKTIHLTGRSLLPALEAEPLWATVFGSQSHHEVTMSYPMRSVQHRHFRLVHNLNFKMPFPIDQDFYVSPTFQDLLNRTTAGQPTGWYKDLRHYYYRARWELYDRSRDPHETQNLATDPRFAQLLEMLRDQLAKWQWETHDPWVCAPDGVLEEKLSPQCQPLHNELGGGGSDKTHTCPPCPAPEAAGGPSVFLFPPKPKDTLMISRTPEVTCVVVDVSHEDPEVKFNWYVDGVEVHNAKTKPREEQYNSTYRVVSVLTVLHQDWLNGKEYKCKVSNKALSAPIEKTISKAKGQPREPQVYTLPPSRDELTKNQVSLWCLVKGFYPSDIAVEWESYGTEWANYKTTPPVLDSDGSFFLYSKLTVTKEEWQQGFVFSCSVMHEALHNHYTQKSLSLSPGK
modifications: SGSH cysteine at position 70 (full-length SGSH numbering) largely converted to formylglycine (fGly 99% in Table 2); the fGly form is SEQ ID NO:95; SGSH cysteine at position 70 (full-length SGSH numbering) largely converted to formylglycine (fGly 99% in Table 2); the fGly form is SEQ ID NO:67
notes: Heterodimer; The preparation may be a mixture; also called fourth "N-terminal bizyme" SGSH-Fc fusion protein; P329S variant of Bizyme Structure 1
- Kd: 0.34 µM
